{"source": "patent US20200024330A1", "assay_in_all_cases": "cell-based or functional assay", "key": {"[1]": {"target": "HIV-1 Env of isolate 94UG103 (HIV-1)"}, "[2]": {"target": "HIV-1 Env of isolate 92UG114 (HIV-1)"}, "[3]": {"target": "HIV-1 JR-CSF Env V120A (HIV-1 (isolate JR-CSF)) (UniProt P20871)"}, "[4]": {"target": "HIV-1 Env of isolate MGRM-Chronic-B-001 (HIV-1)"}, "[5]": {"target": "HIV-1 Env of isolate MGRM-D-020 (HIV-1)"}, "[6]": {"target": "HIV-1 JR-CSF Env R166A (HIV-1 (isolate JR-CSF)) (UniProt P20871)"}, "[7]": {"target": "HIV-1 JR-CSF Env G471A (HIV-1 (isolate JR-CSF)) (UniProt P20871)"}, "[8]": {"target": "HIV-1 Env of isolate MGRM-F1-014 (subtype F), on pseudovirus (HIV-1)"}, "[9]": {"target": "HIV-1 Env of isolate MGRM-C-025 (HIV-1)"}, "[10]": {"target": "HIV-1 Env of isolate MGRM-AE-001 (CRF01_AE), on pseudovirus (HIV-1)"}, "[11]": {"target": "HIV-1 JR-CSF Env D167A (HIV-1 (isolate JR-CSF)) (UniProt P20871)"}, "[12]": {"target": "HIV-1 Env of isolate MGRM-A-014 (clade A), on pseudovirus (HIV-1)"}, "[13]": {"target": "HIV-1 Env of isolate MGRM-G-024 (subtype G) (HIV-1)"}, "[14]": {"target": "HIV-1 Env of isolate MGRM-G-014 (subtype G) (HIV-1)"}, "[15]": {"target": "HIV-1 Env of isolate MGRM-G-015 (subtype G) (HIV-1)"}, "[16]": {"target": "HIV-1 6535.3 Env (pseudovirus) (HIV-1)"}, "[17]": {"target": "HIV-1 Env of isolate MGRM-C-015 (pseudovirus) (HIV-1 isolate MGRM-C-015, subtype C)"}, "[18]": {"target": "HIV-1 Env of isolate MGRM-F1-018 (HIV-1)"}, "[19]": {"target": "HIV-1 Env of isolate MGRM-F1-015 (HIV-1)"}, "[20]": {"target": "HIV-1 Env of isolate MGRM-C-027 (pseudovirus) (HIV-1 isolate MGRM-C-027, subtype C)"}, "[21]": {"target": "HIV-1 Env of isolate MGRM-F1-016 (HIV-1)"}, "[22]": {"target": "HIV-1 MGRM-A-010 envelope glycoprotein (Env) on pseudovirus (HIV-1)"}, "[23]": {"target": "HIV-1 Env of isolate MGRM-F1-008 (subtype F) (HIV-1)"}, "[24]": {"target": "HIV-1 Env of isolate MG RM-D-013 (subtype D) (HIV-1)"}, "[25]": {"target": "HIV-1 APV_17 Env (pseudovirus) (HIV-1)"}, "[26]": {"target": "HIV-1 Env of isolate MGRM-C-007 (pseudovirus) (HIV-1 isolate MGRM-C-007, subtype C)"}, "[27]": {"target": "HIV-1 Env of isolate MG RM-D-028 (subtype D) (HIV-1)"}}}
{"substance": "5136_H01 (PGT-131) (antibody)", "values": [{"measurement": "neutralization IC50", "setting": "[1]", "value": 1.1, "unit": "µg/mL"}, {"measurement": "IC50", "setting": "[2]", "value": "> 50", "unit": "µg/mL"}, {"measurement": "Fold IC50 increase relative to wild-type", "setting": "[3]", "value": 0.7, "unit": "fold"}, {"measurement": "IC50", "setting": "[4]", "value": "> 50", "unit": "µg/mL"}, {"measurement": "IC50", "setting": "[5]", "value": "> 50", "unit": "µg/mL"}, {"measurement": "Fold IC50 increase relative to wild-type", "setting": "[6]", "value": 1.6, "unit": "fold"}, {"measurement": "Fold IC50 increase relative to wild-type", "setting": "[7]", "value": 1.2, "unit": "fold"}, {"measurement": "IC50, pseudovirus neutralization", "setting": "[8]", "value": "> 50", "unit": "µg/mL"}, {"measurement": "IC50", "setting": "[9]", "value": "> 50", "unit": "µg/mL"}, {"measurement": "IC50, single-round pseudovirus neutralization", "setting": "[10]", "value": 4.8, "unit": "µg/mL"}, {"measurement": "Fold IC50 increase relative to wild-type", "setting": "[11]", "value": 1.2, "unit": "fold"}, {"measurement": "IC50, single-round pseudovirus neutralization", "setting": "[12]", "value": 15.4, "unit": "µg/mL"}]}
{"substance": "PGT-144 (4970_K22) (antibody)", "values": [{"measurement": "neutralization IC50", "setting": "[13]", "value": 7.92, "unit": "µg/mL"}, {"measurement": "neutralization IC50", "setting": "[14]", "value": 0.562, "unit": "µg/mL"}, {"measurement": "neutralization IC50", "setting": "[15]", "value": "> 50", "unit": "µg/mL"}]}
{"substance": "PGT-143 (4980_N08) (antibody)", "values": [{"measurement": "neutralization IC50", "setting": "[13]", "value": 0.048, "unit": "µg/mL"}, {"measurement": "neutralization IC50", "setting": "[14]", "value": 0.107, "unit": "µg/mL"}, {"measurement": "neutralization IC50", "setting": "[15]", "value": "> 50", "unit": "µg/mL"}]}
{"substance": "5123_A06 (PGT-125) (antibody)", "values": [{"measurement": "IC50, pseudovirus neutralization", "setting": "[16]", "value": 0.01, "unit": "µg/mL"}, {"measurement": "IC50 (µg/mL) neutralization", "setting": "[17]", "value": "> 50", "unit": "µg/mL"}, {"measurement": "IC50", "setting": "[18]", "value": "> 50", "unit": "µg/mL"}, {"measurement": "IC50", "setting": "[19]", "value": "> 50", "unit": "µg/mL"}, {"measurement": "IC50 (µg/mL) neutralization", "setting": "[20]", "value": "> 50", "unit": "µg/mL"}, {"measurement": "Fold IC50 increase relative to wild-type", "setting": "[3]", "value": 0.5, "unit": "fold"}, {"measurement": "IC50", "setting": "[21]", "value": "> 50", "unit": "µg/mL"}, {"measurement": "IC50 (ug/ml), neutralizing activity", "setting": "[22]", "value": 0.0025, "unit": "µg/mL"}, {"measurement": "neutralization IC50", "setting": "[22]", "value": 0.0055, "unit": "µg/mL"}, {"measurement": "neutralization IC80", "setting": "[22]", "value": 0.024, "unit": "µg/mL"}, {"measurement": "neutralization IC90", "setting": "[22]", "value": 0.0575, "unit": "µg/mL"}, {"measurement": "neutralization IC95", "setting": "[22]", "value": 0.131, "unit": "µg/mL"}, {"measurement": "IC50 (µg/mL), pseudovirus neutralization", "setting": "[23]", "value": 0.361, "unit": "µg/mL"}, {"measurement": "Fold IC50 increase relative to wild-type", "setting": "[6]", "value": 1.5, "unit": "fold"}, {"measurement": "IC50 (µg/mL), pseudovirus neutralization", "setting": "[24]", "value": "> 50", "unit": "µg/mL"}, {"measurement": "Fold IC50 increase relative to wild-type", "setting": "[7]", "value": 1, "unit": "fold"}, {"measurement": "IC50, pseudovirus neutralization", "setting": "[25]", "value": 8.06, "unit": "µg/mL"}, {"measurement": "IC50 (µg/mL) neutralization", "setting": "[26]", "value": "> 50", "unit": "µg/mL"}, {"measurement": "Fold IC50 increase relative to wild-type", "setting": "[11]", "value": 1.7, "unit": "fold"}, {"measurement": "IC50 (µg/mL), pseudovirus neutralization", "setting": "[27]", "value": "> 50", "unit": "µg/mL"}]}
{"substance": "PGT-122 (antibody)", "values": [{"measurement": "IC50 (µg/mL), pseudovirus neutralization", "setting": "[1]", "value": 2.04, "unit": "µg/mL"}]}
{"substance": "VRC01 (antibody)", "values": [{"measurement": "IC50, pseudovirus neutralization", "setting": "[18]", "value": 0.032, "unit": "µg/mL"}, {"measurement": "IC50, pseudovirus neutralization", "setting": "[19]", "value": 0.387, "unit": "µg/mL"}, {"measurement": "IC50, pseudovirus neutralization", "setting": "[21]", "value": 0.517, "unit": "µg/mL"}, {"measurement": "IC50", "setting": "[4]", "value": 0.066, "unit": "µg/mL"}, {"measurement": "IC50, pseudovirus neutralization", "setting": "[5]", "value": 0.192, "unit": "µg/mL"}, {"measurement": "neutralization IC50", "setting": "[13]", "value": 0.025, "unit": "µg/mL"}, {"measurement": "neutralization IC50", "setting": "[14]", "value": 0.056, "unit": "µg/mL"}, {"measurement": "neutralization IC50", "setting": "[15]", "value": 0.548, "unit": "µg/mL"}]}
{"substance": "5141_B17 (PGT-126) (antibody)", "values": [{"measurement": "IC50, pseudovirus neutralization", "setting": "[16]", "value": 0.022, "unit": "µg/mL"}, {"measurement": "IC50 (µg/mL) neutralization", "setting": "[17]", "value": 3.14, "unit": "µg/mL"}, {"measurement": "IC50", "setting": "[18]", "value": 14.9, "unit": "µg/mL"}, {"measurement": "IC50", "setting": "[19]", "value": "> 50", "unit": "µg/mL"}, {"measurement": "IC50 (µg/mL) neutralization", "setting": "[20]", "value": 15.6, "unit": "µg/mL"}, {"measurement": "Fold IC50 increase relative to wild-type", "setting": "[3]", "value": 0.7, "unit": "fold"}, {"measurement": "IC50", "setting": "[21]", "value": "> 50", "unit": "µg/mL"}, {"measurement": "IC50 (ug/ml), neutralizing activity", "setting": "[22]", "value": 0.0033, "unit": "µg/mL"}, {"measurement": "IC50 (µg/mL), pseudovirus neutralization", "setting": "[23]", "value": "> 50", "unit": "µg/mL"}, {"measurement": "Fold IC50 increase relative to wild-type", "setting": "[6]", "value": 1, "unit": "fold"}, {"measurement": "IC50 (µg/mL), pseudovirus neutralization", "setting": "[24]", "value": "> 50", "unit": "µg/mL"}, {"measurement": "Fold IC50 increase relative to wild-type", "setting": "[7]", "value": 1.2, "unit": "fold"}, {"measurement": "IC50, pseudovirus neutralization", "setting": "[25]", "value": 0.353, "unit": "µg/mL"}, {"measurement": "IC50 (µg/mL) neutralization", "setting": "[26]", "value": 25.3, "unit": "µg/mL"}, {"measurement": "Fold IC50 increase relative to wild-type", "setting": "[11]", "value": 1.6, "unit": "fold"}, {"measurement": "IC50 (µg/mL), pseudovirus neutralization", "setting": "[27]", "value": "> 50", "unit": "µg/mL"}]}
{"substance": "5329_C19 (PGT-136) (antibody)", "values": [{"measurement": "neutralization IC50", "setting": "[1]", "value": "> 50", "unit": "µg/mL"}, {"measurement": "IC50", "setting": "[2]", "value": "> 50", "unit": "µg/mL"}, {"measurement": "IC50", "setting": "[4]", "value": "> 50", "unit": "µg/mL"}, {"measurement": "IC50", "setting": "[5]", "value": "> 50", "unit": "µg/mL"}, {"measurement": "IC50, pseudovirus neutralization", "setting": "[8]", "value": "> 50", "unit": "µg/mL"}, {"measurement": "IC50", "setting": "[9]", "value": "> 50", "unit": "µg/mL"}, {"measurement": "IC50, single-round pseudovirus neutralization", "setting": "[10]", "value": "> 50", "unit": "µg/mL"}, {"measurement": "IC50, single-round pseudovirus neutralization", "setting": "[12]", "value": "> 50", "unit": "µg/mL"}]}
{"substance": "PGT-141 (4964_G22; 4993_K13) (antibody)", "values": [{"measurement": "neutralization IC50", "setting": "[13]", "value": 0.051, "unit": "µg/mL"}, {"measurement": "neutralization IC50", "setting": "[14]", "value": 0.222, "unit": "µg/mL"}, {"measurement": "neutralization IC50", "setting": "[15]", "value": "> 50", "unit": "µg/mL"}]}
